# Reference: patent US20200002421A1 (AbbVie / Abbott, published 2020)
# Where a chain is given by its changes, count along the chain named.
# T1: Human full length B7-H3 (human, UniProt Q5ZPR3 29-534)
# T1 sequence: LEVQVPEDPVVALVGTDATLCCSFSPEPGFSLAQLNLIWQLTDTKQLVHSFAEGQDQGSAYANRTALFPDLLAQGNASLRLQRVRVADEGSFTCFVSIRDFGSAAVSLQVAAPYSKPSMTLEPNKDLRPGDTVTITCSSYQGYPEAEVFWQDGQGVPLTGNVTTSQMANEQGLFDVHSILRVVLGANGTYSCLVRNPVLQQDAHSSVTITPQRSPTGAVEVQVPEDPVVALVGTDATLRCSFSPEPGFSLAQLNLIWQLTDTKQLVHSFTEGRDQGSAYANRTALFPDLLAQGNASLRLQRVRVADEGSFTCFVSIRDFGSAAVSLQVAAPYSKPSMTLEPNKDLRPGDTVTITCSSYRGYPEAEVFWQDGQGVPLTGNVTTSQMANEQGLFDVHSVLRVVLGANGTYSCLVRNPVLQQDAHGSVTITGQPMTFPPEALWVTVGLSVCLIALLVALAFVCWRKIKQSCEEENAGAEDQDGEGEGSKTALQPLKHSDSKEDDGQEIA
# B1: huAb3v2.5-CZ (antibody, human IgG1, kappa, L234A L235A, V domains shown)
# VH: EVQLVQSGAEVKKPGSSVKVSCKASGYTFSSYWMHWVRQAPGQGLEWIGLIHPESGSTNYNEMFKNRATLTVDRSTSTAYMELSSLRSEDTAVYYCAGGGRLYFDYWGQGTTVTVSS
# VL: DIVMTQSPLSLPVTPGEPASISCRSSQSLVHSNRDTYLRWYLQKPGQSPQLLIYKVSNRFSGVPDRFSGSGSGTDFTLKISRVEAEDVGVYYCSQSTHVPYTFGGGTKVEIKR
# modifications: synthon CZ on interchain Cys
# B2: huAb3v2.5-LB (antibody, human IgG1, kappa, L234A L235A, V domains shown)
# VH: B1 VH
# VL: B1 VL
# modifications: synthon LB on interchain Cys
# B3: huAb3v2.6-ZT (antibody, human IgG1, kappa, L234A L235A, V domains shown)
# VH: B1 VH
# VL: B1 VL with R34Q
# modifications: synthon ZT on interchain Cys
# B4: huAb3v2.5-YY (antibody, human IgG1, kappa, L234A L235A, V domains shown)
# VH: B1 VH
# VL: B1 VL
# modifications: synthon YY on interchain Cys
# B5: huAb3v2.5-WD (antibody, human IgG1, kappa, L234A L235A, V domains shown)
# VH: B1 VH
# VL: B1 VL
# modifications: synthon WD on interchain Cys
# B6: huAb3v2.5-YG (antibody, human IgG1, kappa, L234A L235A, V domains shown)
# VH: B1 VH
# VL: B1 VL
# modifications: synthon YG on interchain Cys
# B7: huAb3v2.6-YY (antibody, human IgG1, kappa, L234A L235A, V domains shown)
# VH: B1 VH
# VL: B1 VL with R34Q
# modifications: synthon YY on interchain Cys
# B8: huAb3v2.6-LB (antibody, human IgG1, kappa, L234A L235A, V domains shown)
# VH: B1 VH
# VL: B1 VL with R34Q
# modifications: synthon LB on interchain Cys
# B9: huAb3v2.5-SE (antibody, human IgG1, kappa, L234A L235A, V domains shown)
# VH: B1 VH
# VL: B1 VL
# modifications: synthon SE on interchain Cys
# B10: huAb3v2.6-ZZ (antibody, human IgG1, kappa, L234A L235A, V domains shown)
# VH: B1 VH
# VL: B1 VL with R34Q
# modifications: synthon ZZ on interchain Cys
# B11: huAb3v2.6-TX (antibody, human IgG1, kappa, L234A L235A, V domains shown)
# VH: B1 VH
# VL: B1 VL with R34Q
# modifications: synthon TX on interchain Cys
# B12: huAb3v2.5-SR (antibody, human IgG1, kappa, L234A L235A, V domains shown)
# VH: B1 VH
# VL: B1 VL
# modifications: synthon SR on interchain Cys
# B13: huAb3v2.5-AAA (antibody, human IgG1, kappa, L234A L235A, V domains shown)
# VH: B1 VH
# VL: B1 VL
# modifications: synthon AAA on interchain Cys
# B14: huAb3v2.5-TX (antibody, human IgG1, kappa, L234A L235A, V domains shown)
# VH: B1 VH
# VL: B1 VL
# modifications: synthon TX on interchain Cys
# B15: huAb3v2.5-AAD (antibody, human IgG1, kappa, L234A L235A, V domains shown)
# VH: B1 VH
# VL: B1 VL
# modifications: synthon AAD on interchain Cys
# B16: huAb3v2.5-ZT (antibody, human IgG1, kappa, L234A L235A, V domains shown)
# VH: B1 VH
# VL: B1 VL
# modifications: synthon ZT on interchain Cys
# B17: huAb3v2.6-TV (antibody, human IgG1, kappa, L234A L235A, V domains shown)
# VH: B1 VH
# VL: B1 VL with R34Q
# modifications: synthon TV on interchain Cys
# B18: huAb3v2.6-WD (antibody, human IgG1, kappa, L234A L235A, V domains shown)
# VH: B1 VH
# VL: B1 VL with R34Q
# modifications: synthon WD on interchain Cys
# B19: huAb3v2.6-CZ (antibody, human IgG1, kappa, L234A L235A, V domains shown)
# VH: B1 VH
# VL: B1 VL with R34Q
# modifications: synthon CZ on interchain Cys
# B20: huAb3v2.6-AAD (antibody, human IgG1, kappa, L234A L235A, V domains shown)
# VH: B1 VH
# VL: B1 VL with R34Q
# modifications: synthon AAD on interchain Cys
# B21: huAb3v2.5-TV (antibody, human IgG1, kappa, L234A L235A, V domains shown)
# VH: B1 VH
# VL: B1 VL
# modifications: synthon TV on interchain Cys
# B22: huAb3v2.6-AAA (antibody, human IgG1, kappa, L234A L235A, V domains shown)
# VH: B1 VH
# VL: B1 VL with R34Q
# modifications: synthon AAA on interchain Cys
# B23: huAb3v2.5-KZ (antibody, human IgG1, kappa, L234A L235A, V domains shown)
# VH: B1 VH
# VL: B1 VL
# modifications: synthon KZ on interchain Cys
# B24: huAb3v2.5-ZZ (antibody, human IgG1, kappa, L234A L235A, V domains shown)
# VH: B1 VH
# VL: B1 VL
# modifications: synthon ZZ on interchain Cys
# B25: huAb3v2.5-XW (antibody, human IgG1, kappa, L234A L235A, V domains shown)
# VH: B1 VH
# VL: B1 VL
# modifications: synthon XW on interchain Cys
# B26: huAb13v1-CZ (antibody, human IgG1, kappa, L234A L235A, V domains shown)
# VH: EVQLQESGPGLVKPSETLSLTCAVTGYSITSGYSWHWIRQFPGNGLEWMGYIHSSGSTNYNPSLKSRISISRDTSKNQFFLKLSSVTAADTAVYYCAGYDDYFEYWGQGTTVTVSS
# VL: DIQMTQSPSSLSASVGDRVTITCKASQNVGFNVAWYQQKPGKSPKALIYSASYRYSGVPSRFSGSGSGTDFTLTISSLQPEDFAEYFCQQYNWYPFTFGQGTKLEIKR
# modifications: synthon CZ on interchain Cys
# B27: huAb13v1-XW (antibody, human IgG1, kappa, L234A L235A, V domains shown)
# VH: B26 VH
# VL: B26 VL
# modifications: synthon XW on interchain Cys
# B28: huAb13v1-TV (antibody, human IgG1, kappa, L234A L235A, V domains shown)
# VH: B26 VH
# VL: B26 VL
# modifications: synthon TV on interchain Cys
# B29: huAb13v1-SR (antibody, human IgG1, kappa, L234A L235A, V domains shown)
# VH: B26 VH
# VL: B26 VL
# modifications: synthon SR on interchain Cys
# B30: huAb13v1-YG (antibody, human IgG1, kappa, L234A L235A, V domains shown)
# VH: B26 VH
# VL: B26 VL
# modifications: synthon YG on interchain Cys
# B31: huAb13v1-KZ (antibody, human IgG1, kappa, L234A L235A, V domains shown)
# VH: B26 VH
# VL: B26 VL
# modifications: synthon KZ on interchain Cys
# B32: huAb13v1-TX (antibody, human IgG1, kappa, L234A L235A, V domains shown)
# VH: B26 VH
# VL: B26 VL
# modifications: synthon TX on interchain Cys
# B33: huAb13v1-SE (antibody, human IgG1, kappa, L234A L235A, V domains shown)
# VH: B26 VH
# VL: B26 VL
# modifications: synthon SE on interchain Cys
# B34: huAb13v1-AAA (antibody, human IgG1, kappa, L234A L235A, V domains shown)
# VH: B26 VH
# VL: B26 VL
# modifications: synthon AAA on interchain Cys
# Target: T1, Human full length B7-H3
# Assay: cell-based or functional assay
row,Binder,EC50 nM H1650 (in vitro tumor cell cytotoxicity) [nM]
1,B1,0.4
2,B2,2.59
3,B3,1.11
4,B4,0.71
5,B5,0.83
6,B6,0.71
7,B7,0.72
8,B8,2.07
9,B9,0.85
10,B10,1.35
11,B11,0.47
12,B12,0.59
13,B13,0.85
14,B14,0.62
15,B15,0.49
16,B16,0.95
17,B17,0.52

row,Binder,EC50 nM H1650 (in vitro tumor cell cytotoxicity) [nM]
1,B18,0.79
2,B19,0.4
3,B20,0.85
4,B21,0.53
5,B22,1.24
6,B23,0.87
7,B24,1.1
8,B25,2.18
9,B26,0.18
10,B27,0.86
11,B28,0.43
12,B29,0.59
13,B30,0.33
14,B31,179
15,B32,0.22
16,B33,0.63
17,B34,0.37
